Experimental data from patent US20100261620A1 (published 2010).
Substitutions are numbered along the chain they refer to.

T1: human CD147 His-tagged N-terminal domain (human, UniProt P35613-2 20-117)
T1 construct: also called N-terminal human CD147; EMMPRIN; not shown: His tag
T1 chain: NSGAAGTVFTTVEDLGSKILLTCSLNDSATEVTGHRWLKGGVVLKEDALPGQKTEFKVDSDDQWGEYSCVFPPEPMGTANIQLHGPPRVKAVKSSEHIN

B1: M479 (antibody, V domains shown)
VH: QVTLKESGPVLVKPTETLTLTCTVSGFSLSTYGMGVGWIRQPPGKALEWLAHIWWDDVKRYNPALKSRLTISKDTSKSQVVLTMTNMDPVDTATYYCARMGSDYDVWFDYWGQGTLVTVSS
VL: EIVLTQSPATLSLSPGERATLSCRASKSISKYLAWYQQKPGQAPRLLIYSGSTLQSGIPARFSGSGSGTDFTLTISSLEPEDFAVYYCQQPLDTPYTFGQGTKLEIK
notes: anti-IL-13, human IgG1
B2: M482 (antibody, V domains shown)
VH: B1 VH
VL: B1 VL with P91H, T94S
notes: anti-IL-13, human IgG1; printed changes are the same as for M470
B3: M1268 (antibody, V domains shown)
VH: B1 VH with M34V, M100L
VL: B1 VL with P91H, L92N, D93E, T94Y
notes: anti-IL-13, human IgG1; text gives the Met positions as 34 and 100; copies: 2 + 2
B4: M1292 (antibody, V domains shown)
VH: B1 VH with M34E, M100L
VL: EIVLTQSPATLSLSPGERATLSCRASKSISKYLAWYQQKPGQAPRLLIYSGSTLQSGIPARFSGSGSGTDFTLTISSLEPEDFAVYYCQQHDYPYTFGQGTKLEIK
B5: M1286 (antibody, V domains shown)
VH: B1 VH with M34S, M100L
VL: B4 VL
B6: M1295 (antibody, V domains shown)
VH: B1 VH with M34V, M100L
VL: B4 VL
B7: M1375 (antibody, V domains shown)
VH: B1 VH with M34Q, M100L
VL: B4 VL
B8: M460 (anti-IL-13) (antibody, V domains shown)
VH: B1 VH
VL: B4 VL
B9: M480 (antibody, V domains shown)
VH: B1 VH
VL: B4 VL with H91Q, Y93S
B10: M442 (antibody, V domains shown)
VH: B1 VH
VL: B4 VL with H91Q, Y93G
B11: 4A5 Fab (Fab, V domains shown)
VH: EVQLQQSGPELVKPGASVKISCKASGYTFTDYYMNWVKQSHGKSLEWIGGINPNNGGTSYNQKFKGKATLTVDKSSSTAYMELRSLTSEDSAVYYCARNDGYRGYAMDYWGQGTSVTVSS
VL: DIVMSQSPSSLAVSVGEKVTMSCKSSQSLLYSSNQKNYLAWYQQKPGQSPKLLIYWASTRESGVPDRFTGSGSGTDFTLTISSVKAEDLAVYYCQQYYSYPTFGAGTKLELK
notes: mouse variable domains; also called 4A5 chimera; chimeric 4A5 Fab

Each binder was assayed against IL-13 (Homo sapiens (Human), UniProt P35225 35-146, limits assumed) (assay: Biacore).
IL-13, sequence (P35225 35-146 limits assumed): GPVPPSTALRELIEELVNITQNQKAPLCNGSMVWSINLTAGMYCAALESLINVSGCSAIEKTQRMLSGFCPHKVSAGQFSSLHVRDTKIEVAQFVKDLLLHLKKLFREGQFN

Binder | Kd | koff | kon
B1 | 0.192 nM | 0.00024 s⁻¹ | 1.25e+06 M⁻¹ s⁻¹
B2 | 0.296 nM | 0.0003 s⁻¹ | 1.02e+06 M⁻¹ s⁻¹
B3 | 0.621 nM | 0.001 s⁻¹ | 1.61e+06 M⁻¹ s⁻¹
B4 | 0.008 nM | 8e-06 s⁻¹ | 1.05e+06 M⁻¹ s⁻¹
B5 | 0.009 nM | 1.2e-05 s⁻¹ | 1.28e+06 M⁻¹ s⁻¹
B6 | 0.015 nM | 1.8e-05 s⁻¹ | 1.2e+06 M⁻¹ s⁻¹
B7 | 0.024 nM | 2.7e-05 s⁻¹ | 1.1e+06 M⁻¹ s⁻¹
B8 | 0.008 nM | 8e-06 s⁻¹ | 1.03e+06 M⁻¹ s⁻¹
B9 | 0.021 nM | 3.9e-05 s⁻¹ | 1.86e+06 M⁻¹ s⁻¹
B10 | 0.04 nM | 5.3e-05 s⁻¹ | 1.32e+06 M⁻¹ s⁻¹

Molecular target: T1, human CD147 His-tagged N-terminal domain
Assay: SPR, CD147 coupled to the surface

Binder | Kd
B11 | 120 nM
